± gives the uncertainty stated by the source.

This series in a line: amyloid nucleation score (Sup35N fusion, yeast selection) (log enrichment); library NNK2; higher = more nucleation; inactive = no reads after selection. The procedure, abridged:
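The nucleation score is the DiMSum log enrichment of output over input reads, centred on the mode score of non-aggregating sequences. Only sequences with 100 or more input reads were scored, using Illumina sequencing of input and output plasmid inserts. Psi-negative yeast expressing Sup35N fused to peptides of 20 random codons were induced 24 hours with 100 μM copper sulfate and grown 7 days at 30°C on medium lacking adenine and uracil.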
On to YLPRRSGRLRPGMRNNMPFR, for which the amyloid nucleation score was 0.12 ± 0.28.
NLRNKIVGLTKGLVCRANVV: the amyloid nucleation score came to 2.34 ± 0.091.
For NPFLFAYANYLLLMCIGRVY the value was -0.044 ± 0.61; for KMSELWFVIKPWFWIMGLEK, -0.403 ± 1.1; for YIPARSRMGYVAQKLGTTRL, -0.025 ± 0.61.
For SHTSCGMKVSLRICHSMGQR the value was 6.434 ± 0.057; for EFYPTHDFVQRDRRVTRLRI, 0.524 ± 0.81.
Take FRGLYRARNGVIKRMGLGWH: the amyloid nucleation score turned out to be 0.645 ± 0.47.
Substance SWELFSGAWTLGNRYPFRHK gave an amyloid nucleation score of -0.079 ± 0.55.
The substance AHSKHPGTYGQFMSEQSGEA yielded an amyloid nucleation score of 0.767 ± 0.51.
The substance RLVFVFITDG registered an amyloid nucleation score of 2.96 ± 0.054.
The substance LAKRGCVIVCFLTFHYTIRR yielded an amyloid nucleation score of -0.348 ± 0.28.
In the case of LCNAKAS, the amyloid nucleation score was -0.815 ± 0.64.
Substance AESWVNYRGRDV displayed an amyloid nucleation score of 0.472 ± 0.8.
In the case of ADNFICIIETYSYILVWRSS, the amyloid nucleation score was -0.552 ± 0.78.
MVDTTRSTCISNSISWCAID showed an amyloid nucleation score of 5.28 ± 0.062.
As for VDFRFMMHPSEEWMSNHLPR, the amyloid nucleation score was 1.14 ± 0.24.
The result for VRCRMFMYVMSDLSFMS reads 3.6 ± 0.047; that for DTQGIR, -0.212 ± 0.65.
Turning to RSVSGMVWE, the amyloid nucleation score stood at 0.21 ± 0.74.
As to SKLRFAIIFAKHVS, the amyloid nucleation score was -0.322 ± 0.41.
For the substance LVYVT, the amyloid nucleation score was 0.434 ± 0.37.
As to AMQLCSFTPFSTYNFLSYDS, the amyloid nucleation score is -0.685 ± 0.37.
The result for GVKWSVSFKNWHYWKSMSVV reads 1.26 ± 0.66; that for MIGDYTSFCMGSGF, “inactive”; that for YHKAIFFGF, -0.563 ± 0.64.
Take GMYYPREIEFLAFWSTTRGR: the amyloid nucleation score was -0.956 ± 1.
Consider FIIMFIRLLSW, for which the amyloid nucleation score is 1.12 ± 0.14.
For CRKRGH, the amyloid nucleation score was 1.33 ± 0.49.
On to WVYDVQSCIMTPMSGYWFIL, for which the amyloid nucleation score was -0.476 ± 0.36.
SKKTIVFGGTIRTTALPGPG showed an amyloid nucleation score of -0.592 ± 0.76.
In the case of IWSCRGQLGSSFTPSGNCTG, the amyloid nucleation score came out at 1.05 ± 0.37.
The substance VVVDGSLRVNLVSQGDPNNV showed an amyloid nucleation score of 1.07 ± 0.25.
For DSFLTLTCGFRSNALYCWGV the value was -0.663 ± 0.55.
In the case of LRFRATLSVLLYLWDTSRHV, the amyloid nucleation score was 1.76 ± 0.26.
TTVKYG had an amyloid nucleation score of 0.553 ± 0.22.
With CWLGASTSNGLPAAGPSGLH, the amyloid nucleation score was determined as 0.868 ± 0.55.
The result for RSSGSSWRLNYLDEDTVVAR reads 1 ± 0.4.
Turning to VVFVCN, the amyloid nucleation score result was “inactive”.
For KFSGRYWTGIEGVRISVCLH the value was -0.778 ± 0.56.
As to TILCFCAC, the amyloid nucleation score stood at 4.86 ± 0.056.
For RYKSFMVQQSIDNRVLVGVC the value was 0.241 ± 0.8.
As to DDLGMTFRLG, the amyloid nucleation score is -0.337 ± 0.79.
Substance ETVGYN showed an amyloid nucleation score of 0.284 ± 1.1.
Substance NTSFFDGTFLY displayed an amyloid nucleation score of 0.598 ± 0.57.
EVRRCGEEFGNGARMRWMGV: the amyloid nucleation score stood at 0.923 ± 0.28.
Consider PIYLIC, for which the amyloid nucleation score is -0.686 ± 0.28.
Take LSNLGTNYR: the amyloid nucleation score result was “inactive”.
For QLTRTVIYCLLFSAFHFYIS the value was 2.39 ± 0.22.
SCGRMMTVVMIWGNWRSWSS gave an amyloid nucleation score of -0.439 ± 0.76.
WAYAVNPTCYNFVGTGGSCS showed an amyloid nucleation score of 2.44 ± 0.11.
Substance AGDTLWNGGMVEWFVWRLPG displayed an amyloid nucleation score of 0.178 ± 0.74.
For the substance SVTYWGWPTILAVRKCLFNS, the amyloid nucleation score is 2.5 ± 0.091.
In the case of IYSISVLHCKGDLVYS, the amyloid nucleation score result was “inactive”.
As to HLRQWDEYLETGCVN, the amyloid nucleation score came out at 0.32 ± 0.33.
CEWHYRRGFMMIGVMWNAVF displayed an amyloid nucleation score of 0.427 ± 0.36.
Substance TSESSV returned an amyloid nucleation score of -0.36 ± 0.64.
The substance IVILTC showed an amyloid nucleation score of 0.464 ± 0.26.
Consider RVSHREFYLRGTLVETLLDD, for which the amyloid nucleation score result is “inactive”.
VDYTVFGGPTQRIGER yielded an amyloid nucleation score of 0.073 ± 0.3.
EWLAVYVYLHQDGLNNFRS yielded an amyloid nucleation score of -0.784 ± 0.4.
Substance KFSHQVEILPSGTSIGSCER showed an amyloid nucleation score of -0.111 ± 0.63.
In turn, TSLTQDLEMVLSFNFCMGLA yielded an amyloid nucleation score of -0.158 ± 0.44.
With PCCRGRRSSLGRAIKGAEAK, the amyloid nucleation score was 0.009 ± 0.23.
Take CFVRTVFL: the amyloid nucleation score result was “inactive”.
In turn, FMSFVYLHVPSANTCI returned an amyloid nucleation score of 3.83 ± 0.045.
With ALRVLFLVVWSEHDDCYCGG, the amyloid nucleation score stood at 0.665 ± 0.42.
FAGNAHGRRTG came in with an amyloid nucleation score of 1.3 ± 0.31.
For GKGDVGESRADCLAYSRRMS the value was 0.868 ± 0.45.
VHCDYVIELGPGWWVRNWGS came in with an amyloid nucleation score of 0.42 ± 0.54.
Regarding LPVVLAGS, the amyloid nucleation score is -0.191 ± 0.79.
ANNVSGIIVCTNFDILMYGR had an amyloid nucleation score of 7.791 ± 0.042.
For AGMGRSVWSKRFRDISRVSS the value was 0.511 ± 0.56.
Turning to RREDKLICRFIDVNLEVDW, the amyloid nucleation score stood at 2.72 ± 0.066.
For the substance ACILSVYFS, the amyloid nucleation score is 2.12 ± 0.15.
The result for WNVWVYLAAAVSGGGPTCVS reads 4.72 ± 0.076; that for QDLVGGCQLSHHHCNLSCGF, “inactive”; that for YGYSIYLFTGCVKTVLFVSD, 4.68 ± 0.048.
For GIGMRQYMNT the value was 0.823 ± 0.32; for LESYSQCTLTHSNCVLTDEC, 0.909 ± 0.57; for LFISVSYSEFVFQIQDALRC, 1.48 ± 0.12.
Regarding SFLLRWSRFVYICYSICCMI, the amyloid nucleation score is -1.02 ± 0.55.
NTLGSELLLFA gave an amyloid nucleation score of 1.75 ± 0.2.
Substance PAHVSYILSLCLINVC registered an amyloid nucleation score of 4.34 ± 0.072.
Regarding PRVPCTHHMPGW, the amyloid nucleation score worked out at 0.027 ± 0.65.
For WFFYWMYRGYSINMIFEMLD the value was -2.15 ± 0.49; for TIGANPRVLDG, 0.316 ± 0.39; for QLFAVQSLCRKRRQLRWLPT, 0.463 ± 0.64.
For TTVSWENGSRVINIVFILMF the value was 5.045 ± 0.04; for TFKFWCVTKETEQHVSYASR, 4.54 ± 0.067.
WVSRTNELFGPDRLWIDLWH: the amyloid nucleation score is -0.01 ± 1.
Consider GSQYRVWISS, for which the amyloid nucleation score is -0.214 ± 0.55.
Take WVTTNMCYTHQFMFGANLVV: the amyloid nucleation score was determined as 0.276 ± 1.
Regarding KGCVDHVFIYGIN, the amyloid nucleation score is -1.44 ± 0.41.
Take SVCVWAYACRDRTPLLGRFC: the amyloid nucleation score was determined as 0.508 ± 0.56.
For CIMRGREQDFWQSDY the value was 0.116 ± 0.23; for SHLALTY, 0.14 ± 0.25; for FGGINIGCGQCLFVVR, 8.503 ± 0.053.
YEVTRRVSWAFDRMYCRVNR displayed an amyloid nucleation score of 0.101 ± 0.55.
On to WIDGVFTIVSFYMELEGIRV, for which the amyloid nucleation score result is “inactive”.
The result for PTMYWFPPETATSPPYGPPG reads 3.54 ± 0.1; that for MYTVGWHSTQCFLEDFGRTL, 3.13 ± 0.075.
IQWFIWN yielded an amyloid nucleation score of 6.806 ± 0.027.
Consider VCRPDINVAHHPGFNFIVRS, for which the amyloid nucleation score entry was “inactive”.
The substance QAFPDLTVVRACYMHLL displayed an amyloid nucleation score of 0.54 ± 0.25.
In the case of RRAENLMEFGLIRAFY, the amyloid nucleation score is -0.007 ± 0.63.
For FCLVY the value was 0.744 ± 0.19; for CTSCLGKRFSCLTINAGLSW, -0.916 ± 0.56; for LSDYLPISSWFSLCTEFLAT, -1.02 ± 1.1.
In the case of LAGCSMSGVVEC, the amyloid nucleation score came out at 1.13 ± 0.22.
On to WPVGLFKSGAISAV, for which the amyloid nucleation score is -0.475 ± 0.55.
FCLGRMLARPRRTCYTDENM displayed an amyloid nucleation score of -0.126 ± 0.49.
Substance WGCSHKLTCVGARHLVLD came in with an amyloid nucleation score of 2.46 ± 0.17.
AYMSYRAGMDRLQCDVS returned an amyloid nucleation score of -0.947 ± 1.1.
With IHSEFHKSY, the amyloid nucleation score result was “inactive”.
For the substance GCGGDKKDFVISFWWEKYFR, the amyloid nucleation score was -1.74 ± 0.53.
Turning to SVVMTIHNIGWMLRCSGIVY, the amyloid nucleation score is -0.823 ± 0.56.
For the substance GRYILFFSRSEFDFKIVQSV, the amyloid nucleation score was found to be 2.23 ± 0.21.
Consider YWSICPCCFLVSFSDTSWKG, for which the amyloid nucleation score was 8.138 ± 0.057.
In the case of YNWVNTPGHVNL, the amyloid nucleation score is -1.4 ± 0.62.
Take CYLGVKCVLGWQSWRVVYSN: the amyloid nucleation score entry is “inactive”.
In turn, PMISFSLTMRDNCYSGWLCN came in with an amyloid nucleation score of 1.63 ± 0.21.
In turn, TFNLVILGVGHSHHFQRNNH displayed an amyloid nucleation score of 8.269 ± 0.046.
The result for LRYRDASEALSYLCMQYDVI reads 2.94 ± 0.05; that for AFNCT, -0.684 ± 0.78.
Substance AVICVSSRIQFMWMLGGDGT showed an amyloid nucleation score of 5.693 ± 0.045.
For VWKVVKIRAL, the amyloid nucleation score result was “inactive”.
FGMNDRRH displayed an amyloid nucleation score of -0.381 ± 0.79.
Consider RNSIFNG, for which the amyloid nucleation score was -0.796 ± 0.62.
EALKVWERLCRLCSFWSYRK gave an amyloid nucleation score of 7.871 ± 0.039.
RSENSILHVLHRFVA: the amyloid nucleation score is -0.559 ± 0.64.
Substance RFRHGNDYGSYYFCGLLGSM gave an amyloid nucleation score of 0.264 ± 0.46.
The result for ILVYASWLGYHLDICSGFRS reads 1.64 ± 0.089; that for SLLLMDYFLYYYLSVEKRQR, “inactive”.
LSFIFL showed an amyloid nucleation score of 4.256 ± 0.031.
Consider RKVPVR, for which the amyloid nucleation score entry is “inactive”.
Consider LLVYAQLYRVWVWF, for which the amyloid nucleation score was -0.134 ± 0.22.
The substance SRFRGKLCFGWHKYAFGEVF showed an amyloid nucleation score of -0.711 ± 0.79.
KTFFVYIRSNYCV gave an amyloid nucleation score of -1.24 ± 0.62.
For SVANERR, the amyloid nucleation score stood at 5.7 ± 0.065.
Regarding LRFRKMAKKCNYVVRVVLGF, the amyloid nucleation score was -0.273 ± 0.29.

For the origin of these results see the supplement of paper PMC12042874.
